Data set [1] addresses CRD-BP WT (mouse) (UniProt O88477). The data set can be described thus: EMSA. To be noted: EMSA as in refs 21,22 (buffer not given; competitor preincubation 35 C), FP: binding buffer stock 10 mM Tris-HCl pH 7.4, 2.5 mM EDTA, 5% glycerol, 0.002% …. In general terms: In EMSA bound probe runs differently from free probe, usually more slowly.
For data set [2], the target named is CRD-BP KH4 G504D (mouse) (UniProt O88477). In words: EMSA. To be noted: EMSA as in refs 21,22 (buffer not given; competitor preincubation 35 C); FP: binding buffer stock 10 mM Tris-HCl pH 7.4, 2.5 mM EDTA, 5% glycerol, 0.002% ….
The target of data set [3] is CRD-BP KH1 G212D (mouse) (UniProt O88477). The data set can be described thus: EMSA. The settings on record: EMSA as in refs 21,22 (buffer not given; competitor preincubation 35 C); FP: binding buffer stock 10 mM Tris-HCl pH 7.4, 2.5 mM EDTA, 5% glycerol, 0.002% ….
Data set [4] addresses CRD-BP D526E D526E (mouse) (UniProt O88477). The data set can be described thus: EMSA. The settings on record: EMSA as in refs 21,22 (buffer not given; competitor preincubation 35 C); FP: binding buffer stock 10 mM Tris-HCl pH 7.4, 2.5 mM EDTA, 5% glycerol, 0.002% ….
In data set [5] the target is CRD-BP KH2 G293D (mouse) (UniProt O88477). In words: EMSA. The settings on record: EMSA as in refs 21,22 (buffer not given; competitor preincubation 35 C); FP: binding buffer stock 10 mM Tris-HCl pH 7.4, 2.5 mM EDTA, 5% glycerol, 0.002% ….
Data set [6] has as its target CRD-BP KH3 G422D (mouse) (UniProt O88477). The data set can be described thus: EMSA. The settings on record: EMSA as in refs 21,22 (buffer not given; competitor preincubation 35 C); FP: binding buffer stock 10 mM Tris-HCl pH 7.4, 2.5 mM EDTA, 5% glycerol, 0.002% ….
For data set [7], the target named is CRD-BP Y5A Y5A (mouse) (UniProt O88477). The data set can be described thus: EMSA. To be noted: EMSA as in refs 21,22 (buffer not given; competitor preincubation 35 C); FP: binding buffer stock 10 mM Tris-HCl pH 7.4, 2.5 mM EDTA, 5% glycerol, 0.002% ….
The target of data set [8] is CRD-BP KH3-4 G422D;G504D (mouse) (UniProt O88477). In words: EMSA. To be noted: EMSA as in refs 21,22 (buffer not given; competitor preincubation 35 C); FP: binding buffer stock 10 mM Tris-HCl pH 7.4, 2.5 mM EDTA, 5% glycerol, 0.002% ….
Data set [9] deals with CRD-BP WT (mouse) (UniProt O88477). The data set can be described thus: competition. To be noted: EMSA as in refs 21,22 (buffer not given; competitor preincubation 35 C); FP: binding buffer stock 10 mM Tris-HCl pH 7.4, 2.5 mM EDTA, 5% glycerol, 0.002% ….
Data set [10] concerns CRD-BP D526E (mouse). The data set can be described thus: EMSA. The settings on record: EMSA as in refs 21,22 (buffer not given; competitor preincubation 35 C); FP: binding buffer stock 10 mM Tris-HCl pH 7.4, 2.5 mM EDTA, 5% glycerol, 0.002% ….
Data set [11] has as its system CRD-BP Y5A (mouse). The data set can be described thus: EMSA. The settings on record: EMSA as in refs 21,22 (buffer not given; competitor preincubation 35 C); FP: binding buffer stock 10 mM Tris-HCl pH 7.4, 2.5 mM EDTA, 5% glycerol, 0.002% ….
The subject of data set [12] is CRD-BP KH3-4 (mouse). The data set can be described thus: EMSA. To be noted: EMSA as in refs 21,22 (buffer not given; competitor preincubation 35 C); FP: binding buffer stock 10 mM Tris-HCl pH 7.4, 2.5 mM EDTA, 5% glycerol, 0.002% ….

Values joined by “and” are separate entries in the source; they are usually repeats but may differ in a detail not shown here. Identical values can stand only once.

Broadly, the Kd is the constant that tells how readily two partners part at equilibrium.

CRD-BP WT (mouse), sequence (O88477 whole entry): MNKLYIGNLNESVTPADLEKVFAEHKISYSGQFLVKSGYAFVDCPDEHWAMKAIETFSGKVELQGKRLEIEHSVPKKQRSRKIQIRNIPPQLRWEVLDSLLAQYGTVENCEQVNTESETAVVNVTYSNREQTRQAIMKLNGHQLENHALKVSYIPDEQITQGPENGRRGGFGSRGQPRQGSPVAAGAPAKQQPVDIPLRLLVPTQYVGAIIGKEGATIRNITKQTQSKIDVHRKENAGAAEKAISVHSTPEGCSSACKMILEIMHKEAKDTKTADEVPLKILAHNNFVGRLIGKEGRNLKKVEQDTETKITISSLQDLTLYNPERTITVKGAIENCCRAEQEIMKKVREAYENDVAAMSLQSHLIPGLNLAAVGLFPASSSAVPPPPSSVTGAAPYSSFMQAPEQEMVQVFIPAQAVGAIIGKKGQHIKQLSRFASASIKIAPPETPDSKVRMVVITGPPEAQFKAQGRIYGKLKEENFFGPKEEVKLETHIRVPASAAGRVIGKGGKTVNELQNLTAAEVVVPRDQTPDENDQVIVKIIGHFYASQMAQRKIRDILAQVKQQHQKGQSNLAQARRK
CRD-BP KH4 G504D (mouse), sequence (O88477 whole entry G504D): as the sequence (O88477 whole entry) above, with G504D counted along it
CRD-BP KH2 G293D (mouse), sequence (O88477 whole entry G293D): as the sequence (O88477 whole entry) above, with G293D counted along it
CRD-BP KH3 G422D (mouse), sequence (O88477 whole entry G422D): as the sequence (O88477 whole entry) above, with G422D counted along it
CRD-BP KH3-4 G422D;G504D (mouse), sequence (O88477 whole entry G422D/G504D): as the sequence (O88477 whole entry) above, with G422D, G504D counted along it
CRD-BP D526E D526E (mouse), sequence (O88477 whole entry D526E): as the sequence (O88477 whole entry) above, with D526E counted along it
CRD-BP Y5A Y5A (mouse), sequence (O88477 other isoform, or with tags, fused parts or gaps): as the sequence (O88477 whole entry) above, with Y5A counted along it
CRD-BP KH1 G212D (mouse), sequence (O88477 whole entry G212D): as the sequence (O88477 whole entry) above, with G212D counted along it

For “GGCUGAAUUCACCACAGACUUUAGCUUUCUGAGCAAGAGGAUUUUGCGUCAGAGAAAUGUCUGUCCAUUUUUAUUCAGGGGAAACUUGAUUUGAGAUUUUUAUGCCUGUGACUUCCUUGGAAAUCAAAUGUAAAGUUUAAUUGAAAGAAUGUAAAGCAACCA [MITF RNA 1581-1740]”, the binding entry in data set [1] was “binds”.
With “GGAUUGUACAAAUAAGUGUGCAGUAUCUGUGAACUGAAUUCACCACAGACUUUAGCUUUCUGAGCAAGAGGAUUUUGCGUCAGAGAAAUGUCUGUCCAUUUUUAUUCAGGGGAAACUUGAUUUGAGAUUUUUAUGCCUGUGACUUCCUUGGAAAUCAAAUGUAAAGUUUAAUUGAAAGAAUGUAAAGCAACCA [MITF RNA 1550-1740]”, the binding result is recorded as “no binding” in [2]; “binds” in data set [3]; “no binding” in data set [5]; “no binding” in [6]; “binds” in [1]; “binds” in data set [9]. Further, the Kd in data set [4] was 0.091 µM; in data set [1], 0.323 µM and 0.132 µM; in data set [7] it was 0.085 µM; in data set [8], 0.155 µM.
With “GGAUUGUACAAAUAAGUGUGCAGUAUCUGUGAACUGAAUUCACCACAGACUUUAGCUUUCUGAGCAAGAGGAUUUUGCGUCAGAGAAAUGUCUGUCCAUUUUUAUUCAGGGGAAACUUGAUU [MITF RNA 1550-1669]”, the binding entry in data set [1] is listed as “binds”.
With “GGACACUUGUUAGCGAAUCCUCCCUGCACUGCAUUCGCACAAACUGCUUCCUUUCUUGAUUCGUAGAUUUAAUAACUUACCUGAAGGGGUUUUCUUGAUAAUUUUCCUUUAAUAUGAAAUUUUUUUUCAUGCUUUAUCAAUAGCCCAGGAUAUAUUUUAUUUUUAGAAUUUUGUGAAACAGACUUGUAUAUUCUAUUUUACAACUACAAAUGCCUCCAAAGUA [MITF RNA 1330-1550]”, in data set [1], the binding result was “binds more weakly”.
For the substance “GGAUUGUACAAAUAAGUGUGCAGUAUCUGUGAACUGAAUUCACCACAGACUUUAGCUUUCUGAGCAAGAGGAUUUUGCGUCAGAGAAAUGUCUGUCCAUUUUUAUUCAGGGGAAACUUGAUUUGAGAUUUUUAUGCCUGUGACUUCCUUGGAAAUCAAA [MITF RNA 1550-1709]”, the binding result in [1] is listed as “binds”.
As for MITF RNA 1550-1740, the Kd in [10] was found to be 0.091 µM; in [11], 0.085 µM; in data set [12], 0.155 µM; in data set [1] (40 nM RNA, compared with deletion RNA), 0.323 µM; in data set [1], 0.132 µM.
Take MITF RNA 1550-1740 (del1621-1669): in [1] (40 nM RNA), the Kd is 0.97 µM.
In the case of “GGUUUGCGUCAGAGAAAUGUCUGUCCAUUUUUAUUCAGGGGAAACUUGAUUUGAGAUUUUUAUGCCUGUGACUUCCUUGGAAAUCAAAUGUAAAGUUUAAUUGAAAGAAUGUAAAGCAACCA [MITF RNA 1621-1740]”, the binding entry in [1] is on record as “binds”.
Regarding “GGAUUGUACAAAUAAGUGUGCAGUAUCUGUGAACUGAAUUCACCACAGACUUUAGCUUUCUGAGCAAGAGGA [MITF RNA 1550-1619]”, the binding entry in data set [1] was “no binding”.
